# Measured values reported in patent publication US20140147444A1 (published 2014).
# T1: human OPGbp [143-317] (human, UniProt O14788 143-317)
# T1 construct: also called OPGL
# T1 sequence (looked up): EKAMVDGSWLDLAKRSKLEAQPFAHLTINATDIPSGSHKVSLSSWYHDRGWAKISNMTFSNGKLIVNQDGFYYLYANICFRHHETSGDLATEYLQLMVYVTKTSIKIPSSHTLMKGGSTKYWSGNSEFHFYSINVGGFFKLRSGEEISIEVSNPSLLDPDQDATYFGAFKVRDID
# B1: “AT” antibody variant S96I (heavy chain CDR3) (antibody, name in Kabat numbering, V domains shown)
# VH: QVQLVQSGAEVRKPGASVKVSCKASGYDFSNYAIHWVRQAPGQRLEWMGWINAGNGNTKFSQKFQGRITVTRDTAASTAYMELRSLRSEDTAVYYCARDISNMVRGIIIAYYFDYWGQGTLVTVSS
# VL: EIVMTQSPSSLSASVGDRVTITCRASQSISRYLNWYQLKPGKAPRLLIYGASSLQSGVPSRFSGSGSGAEFTLTISSLQPEDIATYYCQHTRAFGQGTKVEIKR
# notes: not shown: human IgG1 CH1, hinge, CH2 and CH3
# B2: “AT” antibody variant S96E (heavy chain CDR3) (antibody, name in Kabat numbering, V domains shown)
# VH: QVQLVQSGAEVRKPGASVKVSCKASGYDFSNYAIHWVRQAPGQRLEWMGWINAGNGNTKFSQKFQGRITVTRDTAASTAYMELRSLRSEDTAVYYCARDESNMVRGIIIAYYFDYWGQGTLVTVSS
# VL: EIVMTQSPSSLSASVGDRVTITCRASQSISRYLNWYQLKPGKAPRLLIYGASSLQSGVPSRFSGSGSGAEFTLTISSLQPEDIATYYCQHTRAFGQGTKVEIKR
# notes: as for B1
# B3: “AT” antibody variant S96H (heavy chain CDR3) (antibody, name in Kabat numbering, V domains shown)
# VH: QVQLVQSGAEVRKPGASVKVSCKASGYDFSNYAIHWVRQAPGQRLEWMGWINAGNGNTKFSQKFQGRITVTRDTAASTAYMELRSLRSEDTAVYYCARDHSNMVRGIIIAYYFDYWGQGTLVTVSS
# VL: EIVMTQSPSSLSASVGDRVTITCRASQSISRYLNWYQLKPGKAPRLLIYGASSLQSGVPSRFSGSGSGAEFTLTISSLQPEDIATYYCQHTRAFGQGTKVEIKR
# notes: as for B1
# B4: “AT” antibody variant S96W (heavy chain CDR3) (antibody, name in Kabat numbering, V domains shown)
# VH: QVQLVQSGAEVRKPGASVKVSCKASGYDFSNYAIHWVRQAPGQRLEWMGWINAGNGNTKFSQKFQGRITVTRDTAASTAYMELRSLRSEDTAVYYCARDWSNMVRGIIIAYYFDYWGQGTLVTVSS
# VL: EIVMTQSPSSLSASVGDRVTITCRASQSISRYLNWYQLKPGKAPRLLIYGASSLQSGVPSRFSGSGSGAEFTLTISSLQPEDIATYYCQHTRAFGQGTKVEIKR
# notes: as for B1
# B5: “AT” antibody variant S96D (heavy chain CDR3) (antibody, name in Kabat numbering, V domains shown)
# VH: QVQLVQSGAEVRKPGASVKVSCKASGYDFSNYAIHWVRQAPGQRLEWMGWINAGNGNTKFSQKFQGRITVTRDTAASTAYMELRSLRSEDTAVYYCARDDSNMVRGIIIAYYFDYWGQGTLVTVSS
# VL: EIVMTQSPSSLSASVGDRVTITCRASQSISRYLNWYQLKPGKAPRLLIYGASSLQSGVPSRFSGSGSGAEFTLTISSLQPEDIATYYCQHTRAFGQGTKVEIKR
# notes: as for B1
# B6: “AT” antibody variant S96G (heavy chain CDR3) (antibody, name in Kabat numbering, V domains shown)
# VH: QVQLVQSGAEVRKPGASVKVSCKASGYDFSNYAIHWVRQAPGQRLEWMGWINAGNGNTKFSQKFQGRITVTRDTAASTAYMELRSLRSEDTAVYYCARDGSNMVRGIIIAYYFDYWGQGTLVTVSS
# VL: EIVMTQSPSSLSASVGDRVTITCRASQSISRYLNWYQLKPGKAPRLLIYGASSLQSGVPSRFSGSGSGAEFTLTISSLQPEDIATYYCQHTRAFGQGTKVEIKR
# notes: as for B1
# B7: “AT” antibody variant S96P (heavy chain CDR3) (antibody, name in Kabat numbering, V domains shown)
# VH: QVQLVQSGAEVRKPGASVKVSCKASGYDFSNYAIHWVRQAPGQRLEWMGWINAGNGNTKFSQKFQGRITVTRDTAASTAYMELRSLRSEDTAVYYCARDPSNMVRGIIIAYYFDYWGQGTLVTVSS
# VL: EIVMTQSPSSLSASVGDRVTITCRASQSISRYLNWYQLKPGKAPRLLIYGASSLQSGVPSRFSGSGSGAEFTLTISSLQPEDIATYYCQHTRAFGQGTKVEIKR
# notes: as for B1
# B8: “AT” antibody variant S96R (heavy chain CDR3) (antibody, name in Kabat numbering, V domains shown)
# VH: QVQLVQSGAEVRKPGASVKVSCKASGYDFSNYAIHWVRQAPGQRLEWMGWINAGNGNTKFSQKFQGRITVTRDTAASTAYMELRSLRSEDTAVYYCARDRSNMVRGIIIAYYFDYWGQGTLVTVSS
# VL: EIVMTQSPSSLSASVGDRVTITCRASQSISRYLNWYQLKPGKAPRLLIYGASSLQSGVPSRFSGSGSGAEFTLTISSLQPEDIATYYCQHTRAFGQGTKVEIKR
# notes: as for B1
# B9: “AT” antibody variant S96T (heavy chain CDR3) (antibody, name in Kabat numbering, V domains shown)
# VH: QVQLVQSGAEVRKPGASVKVSCKASGYDFSNYAIHWVRQAPGQRLEWMGWINAGNGNTKFSQKFQGRITVTRDTAASTAYMELRSLRSEDTAVYYCARDTSNMVRGIIIAYYFDYWGQGTLVTVSS
# VL: EIVMTQSPSSLSASVGDRVTITCRASQSISRYLNWYQLKPGKAPRLLIYGASSLQSGVPSRFSGSGSGAEFTLTISSLQPEDIATYYCQHTRAFGQGTKVEIKR
# notes: as for B1
# B10: “AT” antibody variant S96L (heavy chain CDR3) (antibody, name in Kabat numbering, V domains shown)
# VH: QVQLVQSGAEVRKPGASVKVSCKASGYDFSNYAIHWVRQAPGQRLEWMGWINAGNGNTKFSQKFQGRITVTRDTAASTAYMELRSLRSEDTAVYYCARDLSNMVRGIIIAYYFDYWGQGTLVTVSS
# VL: EIVMTQSPSSLSASVGDRVTITCRASQSISRYLNWYQLKPGKAPRLLIYGASSLQSGVPSRFSGSGSGAEFTLTISSLQPEDIATYYCQHTRAFGQGTKVEIKR
# notes: as for B1
# B11: “AT” antibody variant S96M (heavy chain CDR3) (antibody, name in Kabat numbering, V domains shown)
# VH: QVQLVQSGAEVRKPGASVKVSCKASGYDFSNYAIHWVRQAPGQRLEWMGWINAGNGNTKFSQKFQGRITVTRDTAASTAYMELRSLRSEDTAVYYCARDMSNMVRGIIIAYYFDYWGQGTLVTVSS
# VL: EIVMTQSPSSLSASVGDRVTITCRASQSISRYLNWYQLKPGKAPRLLIYGASSLQSGVPSRFSGSGSGAEFTLTISSLQPEDIATYYCQHTRAFGQGTKVEIKR
# notes: as for B1
# B12: “AT” antibody variant S96V (heavy chain CDR3) (antibody, name in Kabat numbering, V domains shown)
# VH: QVQLVQSGAEVRKPGASVKVSCKASGYDFSNYAIHWVRQAPGQRLEWMGWINAGNGNTKFSQKFQGRITVTRDTAASTAYMELRSLRSEDTAVYYCARDVSNMVRGIIIAYYFDYWGQGTLVTVSS
# VL: EIVMTQSPSSLSASVGDRVTITCRASQSISRYLNWYQLKPGKAPRLLIYGASSLQSGVPSRFSGSGSGAEFTLTISSLQPEDIATYYCQHTRAFGQGTKVEIKR
# notes: as for B1
# B13: “AT” antibody variant S96F (heavy chain CDR3) (antibody, name in Kabat numbering, V domains shown)
# VH: QVQLVQSGAEVRKPGASVKVSCKASGYDFSNYAIHWVRQAPGQRLEWMGWINAGNGNTKFSQKFQGRITVTRDTAASTAYMELRSLRSEDTAVYYCARDFSNMVRGIIIAYYFDYWGQGTLVTVSS
# VL: EIVMTQSPSSLSASVGDRVTITCRASQSISRYLNWYQLKPGKAPRLLIYGASSLQSGVPSRFSGSGSGAEFTLTISSLQPEDIATYYCQHTRAFGQGTKVEIKR
# notes: as for B1
# B14: “AT” antibody variant S96Y (heavy chain CDR3) (antibody, name in Kabat numbering, V domains shown)
# VH: QVQLVQSGAEVRKPGASVKVSCKASGYDFSNYAIHWVRQAPGQRLEWMGWINAGNGNTKFSQKFQGRITVTRDTAASTAYMELRSLRSEDTAVYYCARDYSNMVRGIIIAYYFDYWGQGTLVTVSS
# VL: EIVMTQSPSSLSASVGDRVTITCRASQSISRYLNWYQLKPGKAPRLLIYGASSLQSGVPSRFSGSGSGAEFTLTISSLQPEDIATYYCQHTRAFGQGTKVEIKR
# notes: as for B1
# B15: “AT” antibody variant S96K (heavy chain CDR3) (antibody, name in Kabat numbering, V domains shown)
# VH: QVQLVQSGAEVRKPGASVKVSCKASGYDFSNYAIHWVRQAPGQRLEWMGWINAGNGNTKFSQKFQGRITVTRDTAASTAYMELRSLRSEDTAVYYCARDKSNMVRGIIIAYYFDYWGQGTLVTVSS
# VL: EIVMTQSPSSLSASVGDRVTITCRASQSISRYLNWYQLKPGKAPRLLIYGASSLQSGVPSRFSGSGSGAEFTLTISSLQPEDIATYYCQHTRAFGQGTKVEIKR
# notes: as for B1
# B16: “AT” antibody variant S96N (heavy chain CDR3) (antibody, name in Kabat numbering, V domains shown)
# VH: QVQLVQSGAEVRKPGASVKVSCKASGYDFSNYAIHWVRQAPGQRLEWMGWINAGNGNTKFSQKFQGRITVTRDTAASTAYMELRSLRSEDTAVYYCARDNSNMVRGIIIAYYFDYWGQGTLVTVSS
# VL: EIVMTQSPSSLSASVGDRVTITCRASQSISRYLNWYQLKPGKAPRLLIYGASSLQSGVPSRFSGSGSGAEFTLTISSLQPEDIATYYCQHTRAFGQGTKVEIKR
# notes: as for B1
# B17: “AT” antibody variant S96Q (heavy chain CDR3) (antibody, name in Kabat numbering, V domains shown)
# VH: QVQLVQSGAEVRKPGASVKVSCKASGYDFSNYAIHWVRQAPGQRLEWMGWINAGNGNTKFSQKFQGRITVTRDTAASTAYMELRSLRSEDTAVYYCARDQSNMVRGIIIAYYFDYWGQGTLVTVSS
# VL: EIVMTQSPSSLSASVGDRVTITCRASQSISRYLNWYQLKPGKAPRLLIYGASSLQSGVPSRFSGSGSGAEFTLTISSLQPEDIATYYCQHTRAFGQGTKVEIKR
# notes: as for B1
# B18: “AT” antibody variant N98D (heavy chain CDR3) (antibody, name in Kabat numbering, V domains shown)
# VH: QVQLVQSGAEVRKPGASVKVSCKASGYDFSNYAIHWVRQAPGQRLEWMGWINAGNGNTKFSQKFQGRITVTRDTAASTAYMELRSLRSEDTAVYYCARDSSDMVRGIIIAYYFDYWGQGTLVTVSS
# VL: EIVMTQSPSSLSASVGDRVTITCRASQSISRYLNWYQLKPGKAPRLLIYGASSLQSGVPSRFSGSGSGAEFTLTISSLQPEDIATYYCQHTRAFGQGTKVEIKR
# notes: as for B1
# B19: “AT” antibody variant N98E (heavy chain CDR3) (antibody, name in Kabat numbering, V domains shown)
# VH: QVQLVQSGAEVRKPGASVKVSCKASGYDFSNYAIHWVRQAPGQRLEWMGWINAGNGNTKFSQKFQGRITVTRDTAASTAYMELRSLRSEDTAVYYCARDSSEMVRGIIIAYYFDYWGQGTLVTVSS
# VL: EIVMTQSPSSLSASVGDRVTITCRASQSISRYLNWYQLKPGKAPRLLIYGASSLQSGVPSRFSGSGSGAEFTLTISSLQPEDIATYYCQHTRAFGQGTKVEIKR
# notes: as for B1
# Target: T1, human OPGbp [143-317]
# Assay: SPR (BIAcore), immobilized OPGbp [143-317]
Binder,Kd [nM],koff [s⁻¹],kon [M⁻¹ s⁻¹]
B1,1.56,0.00466,2.99e+06
B2,0.35,0.000901,2.54e+06
B3,1.86,0.00764,4.12e+06
B4,1.26,0.00203,1.61e+06
B5,0.51,0.00118,2.28e+06
B6,3.85,0.015,3.87e+06
B7,1.29,0.00188,1.45e+06
B8,0.38,0.00262,6.97e+06
B9,0.53,0.00167,3.14e+06
B10,0.3,0.00175,5.84e+06
B11,2.43,0.0087,3.57e+06
B12,2.25,0.0121,5.37e+06
B13,8.45,0.00268,317000
B14,0.67,0.00185,2.75e+06
B15,0.31,0.00141,4.55e+06
B16,1.53,0.00215,1.4e+06
B17,3.09,0.00359,1.16e+06

# Target: T1, human OPGbp [143-317]
# Assay: SPR (BIAcore), immobilized OPGbp [143-317]
# Remark: another data set of the same source
Binder,Kd [nM],koff [s⁻¹],kon [M⁻¹ s⁻¹]
B18,0.46,0.00312,6.85e+06
B19,1.32,0.00359,2.72e+06
